Results taken from PMC8922107.

Target: Flag-PKM2 from the nuclear fraction of U87 cells (UniProt P14618)
Experiment: SEC; Flag-PKM2 eluted with flag peptide in TBS (25 mM Tris, 150 mM NaCl, pH 7.2); Superdex 200 increase 10/300 GL, 4 °C, 0.5 mL/min; fractions analysed by western blot

Sequence of Flag-PKM2 from the nuclear fraction of U87 cells, P14618 1-531 (enzyme; other documents disagree on this pair) (P14618 whole entry): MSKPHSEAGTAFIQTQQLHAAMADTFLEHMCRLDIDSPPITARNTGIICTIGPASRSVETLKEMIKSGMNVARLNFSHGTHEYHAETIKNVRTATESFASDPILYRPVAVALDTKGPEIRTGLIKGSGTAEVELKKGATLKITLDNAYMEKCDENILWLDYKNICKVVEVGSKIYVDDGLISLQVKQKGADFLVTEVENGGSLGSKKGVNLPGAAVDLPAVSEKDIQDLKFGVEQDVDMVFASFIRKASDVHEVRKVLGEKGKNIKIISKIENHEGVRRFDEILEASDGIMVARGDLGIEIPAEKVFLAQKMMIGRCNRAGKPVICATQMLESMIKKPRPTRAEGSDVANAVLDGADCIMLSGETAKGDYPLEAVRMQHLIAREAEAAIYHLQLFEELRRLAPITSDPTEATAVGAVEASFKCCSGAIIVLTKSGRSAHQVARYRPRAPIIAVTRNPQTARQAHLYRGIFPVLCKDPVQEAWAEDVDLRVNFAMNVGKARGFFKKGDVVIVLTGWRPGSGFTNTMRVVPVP

stoichiometry N: 2
Substance: Flag-PKM2 from the nuclear fraction of U87 cells, P14618 1-531 (enzyme; other documents disagree on this pair)
